Assays:
[1] = Thermal stability of modified Luciola cruciata luciferase protein versus wild type protein (residual luminescence of cell lysates after incubation); details: for stability of the protein relative to wild type: 37° C.
Description: (§1) Transfected NIH 3T3 cells prepared in Example 4 were lysed using a lysis buffer comprised of 25 mM Tris-phosphate (pH 7.8), containing 10% glycerol, 1% Triton X-100, 1 mg/ml BSA, 2 mM EGTA and 2 mM DTT. Cells were washed with 1× Phosphate Buffered Saline, and lysis buffer (1 mL) was added to surface of plate. Plate was incubated for 30 mins, and lysate was collected. Additionally, NIH 3T3 cells were transfected with pSV40-GL3, a construct containing wild type luciferase from Photinus pyralis, as per the method in Example 4 and lysed using the above method. As a negative control, untransfected NIH 3T3 cells were also lysed by the above method.
(§2) Cell lysates were diluted using lysis buffer, and added in triplicate to wells of a solid white 96-well plate (Costar). Added to cell lysates was a reagent containing 1 mM D-luciferin and 2 mM ATP in a buffer comprised of 25 mM Glycylglycine, 15 mM MgSO4, 4 mM EDTA, 15 mM Potassium phosphate pH 7.8, 1 mM DTT, and 1 mM Coenzyme A.
(§3) Luminescence was recorded using a Perkin-Elmer HTS7000 Plus Bio Assay Reader (200 ms integration time).
Cell lysates from NIH 3T3 cells transfected with pDC99 and pSV40-GL3 (transfected according to method in Example 4), as well as untransfected cells were prepared as described in Example 5a. Luminescence of each sample was recorded as described in Example 5a to obtain a baseline value of enzyme activity. Portions of each sample were then incubated in water baths at 37° C., 42° C., and 55° C. A portion of each sample was also incubated at ambient room temperature (25° C.). At 1 hour and 2 hour intervals, aliquots of each temperature-incubation were removed and assayed for activity using the method described in Example 5a.

NIH 3T3 cells = assay: Luciferase expression levels in transfected mammalian cells (luminescence of lysates); type: cell-based, murine; details: mammalian cell systems
Description: NIH 3T3 cells (murine […] fibroblasts) were grown to 80% confluence in 100 mm tissue culture plates. Cells were transfected with either pDC57 or pDC99 using Lipofectamine and PLUS reagents (Invitrogen).
as §1, §2, §3

B1: modified luciferase: Luciola cruciata luciferase with Ser to Tyr change at position 286, amino acid sequence SEQ ID NO:4, encoded by codon optimized gene SEQ ID NO:3 (protein, listed as Luciola cruciata)
chain: MENMENDENIVVGPKPFYPIEEGSAGTQLRKYMERYAKLGAIAFTNAVTGVDYSYAEYLEKSCCLGKALQNYGLVVDGRIALCSENCEEFFIPVIAGLFIGVGVAPTNEIYTLRELVHSLGISKPTIVFSSKKGLDKVITVQKTVTTIKTIVILDSKVDYRGYQCLDTFIKRNTPPGFQASSFKTVEVDRKEQVALIMNSSGSTGLPKGVQLTHENTVTRFSHARDPIYGNQVSPGTAVLTVVPFHHGFGMFTTLGYLICGFRVVMLTKFDEETFLKTLQDYKCTYVILVPTLFAILNKSELLNKYDLSNLVEIASGGAPLSKEVGEAVARRFNLPGVRQGYGLTETTSAIIITPEGDDKPGASGKVVPLFKAKVIDLDTKKSLGPNRRGEVCVKGPMLMKGYVNNPEATKELIDEEGWLHTGDIGYYDEEKHFFIVDRLKSLIKYKGYQVPPAELESVLLQHPSIFDAGVAGVPDPVAGELPGAVVVLESGKNMTEKEVMDYVASQVSNAKRLRGGVRFVDEVPKGLTGKIDGRAIREILKKPVAKM
[1]; after 1 hour
  stability of the protein relative to wild type: > 100 fold
[1]; after 2 hours
  stability of the protein relative to wild type: > 1000 fold
[1]; room temperature
  thermostability compared with wild-type protein: greater thermostability
NIH 3T3 cells
  expression level compared to native luciferase: higher expression levels

Source: US8450054B2, “Modified Luciola cruciata luciferase gene and protein” (Marker Gene Technologies, Inc., priority 2008, dated 2013)
